# Test results from paper doi:10.1101/2024.06.19.598823 (bioRxiv, 2024).
# B1: nanobody 7F (VHH)
# VHH: EVQLVESGGGLVEAGGSLRLSCVASGLTFSDYTMAWFRQVPGQEREFVSHIGWGGSETYYADSVKGRFTISRDNAKNAMYLQMNELKPDDTAVYYCAADRGSSFYYVRESEYTFWGQGTQVTVSS
# How the values were obtained:
# [1] = target: SARS-CoV-2 spike ectodomain, trimeric recombinant (SARS-CoV-2, ancestral (Wuhan) assumed, UniProt P0DTC2); assay: cell-based or functional assay
# [2] = target: 6P stabilized SARS-CoV-2 S-ectodomain (prefusion-stabilized ancestral Wuhan spike ectodomain trimer) (SARS-CoV-2, ancestral Wuhan, stabilised); assay: cryo-EM structure
binder,measurement,setting,value
B1,IC50 of neutralisation of VSV pseudotyped with SARS-CoV-2 spike on VeroE6 cells,[1],33.4 nM
same,stoichiometry N,[2],6 7F molecules per two spike trimers
